Each block holds one binder with its values, some of them ahead of it.
What was measured:
Assay in all cases: holdup assay
Parameters in all cases: key: below the threshold = too weak to quantify, mostly under pKd 3.1 to 4
[1] = target: T1, ARHGEF11, O15085
T1 sequence (O15085 42-136, limits assumed, looked up): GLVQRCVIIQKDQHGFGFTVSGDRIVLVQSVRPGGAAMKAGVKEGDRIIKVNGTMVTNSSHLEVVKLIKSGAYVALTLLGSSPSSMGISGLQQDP

[2] = target: LIMK2, P53671
[3] = target: DLG4_1, P78352
[4] = target: MAGI1_1, Q96QZ7
[5] = target: PARD3_3, Q8TEW0
Sequence of PARD3_3, Q8TEW0 (Q8TEW0 582-685): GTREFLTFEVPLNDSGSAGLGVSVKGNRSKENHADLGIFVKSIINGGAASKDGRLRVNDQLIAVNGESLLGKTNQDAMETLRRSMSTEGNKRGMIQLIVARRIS

[6] = target: GRIP2_3, Q9C0E4
Sequence of GRIP2_3, Q9C0E4 (Q9C0E4 238-339): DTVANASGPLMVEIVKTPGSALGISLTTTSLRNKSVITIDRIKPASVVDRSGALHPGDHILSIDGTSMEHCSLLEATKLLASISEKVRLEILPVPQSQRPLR

[7] = target: DLG2_3, Q15700
[8] = target: T2, RAPGEF6, Q8TEU7
T2 sequence (Q8TEU7 525-625, limits assumed, looked up): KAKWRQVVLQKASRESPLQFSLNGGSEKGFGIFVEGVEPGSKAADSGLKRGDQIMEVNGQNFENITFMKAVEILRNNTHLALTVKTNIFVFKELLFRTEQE

[9] = target: T3, RADIL, Q96JH8
T3 sequence (Q96JH8 971-1071, limits assumed, looked up): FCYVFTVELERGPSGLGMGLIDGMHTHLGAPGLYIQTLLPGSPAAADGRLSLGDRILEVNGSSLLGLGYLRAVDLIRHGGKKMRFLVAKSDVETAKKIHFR

[10] = target: T4, APBA2_1, Q99767
T4 sequence (Q99767 563-664, limits assumed, looked up): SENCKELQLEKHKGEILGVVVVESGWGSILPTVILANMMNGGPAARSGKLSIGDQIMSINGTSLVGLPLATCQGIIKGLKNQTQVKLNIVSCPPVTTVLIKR

[11] = target: DLG4_2, P78352
Sequence of DLG4_2, P78352 (P78352 155-259): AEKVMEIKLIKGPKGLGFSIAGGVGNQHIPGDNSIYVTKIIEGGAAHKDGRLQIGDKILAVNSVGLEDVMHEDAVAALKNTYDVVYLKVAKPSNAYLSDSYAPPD

[12] = target: T5, TX1BP3, O14907
T5 sequence (O14907 10-122, limits assumed, looked up): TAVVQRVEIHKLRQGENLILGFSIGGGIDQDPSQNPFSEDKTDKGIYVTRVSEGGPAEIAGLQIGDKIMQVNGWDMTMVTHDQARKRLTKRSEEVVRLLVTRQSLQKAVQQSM

[13] = target: T6, LIN7A, O14910
T6 sequence (O14910 103-200, limits assumed, looked up): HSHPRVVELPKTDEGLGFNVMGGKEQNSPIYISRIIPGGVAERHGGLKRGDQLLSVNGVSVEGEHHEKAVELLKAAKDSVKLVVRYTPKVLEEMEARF

[14] = target: T7, SYNJ2BP, P57105
T7 sequence (P57105 8-110, limits assumed, looked up): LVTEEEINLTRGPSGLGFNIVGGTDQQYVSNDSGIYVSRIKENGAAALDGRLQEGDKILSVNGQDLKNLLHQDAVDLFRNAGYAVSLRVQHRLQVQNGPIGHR

[15] = target: HTRA1, Q92743
Sequence of HTRA1, Q92743 (Q92743 360-477): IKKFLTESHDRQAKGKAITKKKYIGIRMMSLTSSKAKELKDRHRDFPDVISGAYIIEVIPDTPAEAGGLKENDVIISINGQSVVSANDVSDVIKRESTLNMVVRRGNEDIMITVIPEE

[16] = target: MAGI2_3, Q86UL8
Sequence of MAGI2_3, Q86UL8 (Q86UL8 600-682): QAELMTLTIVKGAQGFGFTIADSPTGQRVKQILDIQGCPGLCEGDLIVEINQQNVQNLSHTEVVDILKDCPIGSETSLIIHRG

[17] = target: T8, DLG3_2, Q92796
T8 sequence (Q92796 221-321, limits assumed, looked up): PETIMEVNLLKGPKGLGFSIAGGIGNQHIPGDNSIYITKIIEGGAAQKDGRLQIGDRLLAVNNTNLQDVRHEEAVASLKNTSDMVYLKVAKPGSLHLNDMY

[18] = target: PDZRN4_1, Q6ZMN7
Sequence of PDZRN4_1, Q6ZMN7 (Q6ZMN7 213-318): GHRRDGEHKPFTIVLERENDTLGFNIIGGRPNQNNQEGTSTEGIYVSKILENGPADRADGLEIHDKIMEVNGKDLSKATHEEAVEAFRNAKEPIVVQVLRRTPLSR

[19] = target: T9, SNTG1, Q9NSN8
T9 sequence (Q9NSN8 52-150, limits assumed, looked up): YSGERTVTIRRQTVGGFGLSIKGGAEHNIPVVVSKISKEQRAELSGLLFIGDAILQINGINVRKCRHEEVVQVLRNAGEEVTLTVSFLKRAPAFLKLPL

[20] = target: NHERF2_2, Q15599
Sequence of NHERF2_2, Q15599 (Q15599 142-238): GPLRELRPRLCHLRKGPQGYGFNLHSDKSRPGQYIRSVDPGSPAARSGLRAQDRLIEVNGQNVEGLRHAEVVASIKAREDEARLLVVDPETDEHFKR

[21] = target: PTPN3, P26045
Sequence of PTPN3, P26045 (P26045 505-587): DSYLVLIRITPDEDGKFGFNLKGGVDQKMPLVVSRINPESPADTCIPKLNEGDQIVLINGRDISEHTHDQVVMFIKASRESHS

[22] = target: GRIP2_6, Q9C0E4
Sequence of GRIP2_6, Q9C0E4 (Q9C0E4 648-740): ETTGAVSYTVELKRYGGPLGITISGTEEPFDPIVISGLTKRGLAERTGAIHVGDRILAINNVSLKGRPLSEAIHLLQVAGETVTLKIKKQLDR

[23] = target: T10, ARHGAP21, Q5T5U3
T10 sequence (Q5T5U3 45-169, limits assumed, looked up): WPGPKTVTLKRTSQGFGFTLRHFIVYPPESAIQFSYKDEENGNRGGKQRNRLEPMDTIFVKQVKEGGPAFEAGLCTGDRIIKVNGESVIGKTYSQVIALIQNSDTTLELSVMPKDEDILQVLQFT

[24] = target: SCRIB_1, Q14160
Sequence of SCRIB_1, Q14160 (Q14160 718-814): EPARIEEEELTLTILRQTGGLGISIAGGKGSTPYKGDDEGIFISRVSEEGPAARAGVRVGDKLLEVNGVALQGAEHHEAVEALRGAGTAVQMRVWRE

[25] = target: DLG2_2, Q15700
[26] = target: MAST1, Q9Y2H9
Sequence of MAST1, Q9Y2H9 (Q9Y2H9 962-1065): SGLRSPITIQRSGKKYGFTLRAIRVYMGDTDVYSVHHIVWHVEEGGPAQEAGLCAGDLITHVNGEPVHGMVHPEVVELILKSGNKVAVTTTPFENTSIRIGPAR

[27] = target: IL16_1, Q14005
Sequence of IL16_1, Q14005 (Q14005 210-306): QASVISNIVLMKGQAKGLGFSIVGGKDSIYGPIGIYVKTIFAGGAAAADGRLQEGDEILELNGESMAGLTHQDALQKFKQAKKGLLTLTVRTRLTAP

[28] = plain residues with an end cap or a label only (N-terminal biotin on a linker: ahx)
[29] = plain residues with an end cap or a label only (N-terminal biotin on a linker: ado-ado)
[30] = plain residues with an end cap or a label only (N-terminal biotin on a linker: ttds)

Sequence of LIMK2, P53671 (P53671 143-248): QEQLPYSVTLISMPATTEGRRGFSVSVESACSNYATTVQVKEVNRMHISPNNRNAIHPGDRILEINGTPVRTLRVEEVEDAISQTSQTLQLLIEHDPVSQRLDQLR
Sequence of MAGI1_1, Q96QZ7 (Q96QZ7 1-106): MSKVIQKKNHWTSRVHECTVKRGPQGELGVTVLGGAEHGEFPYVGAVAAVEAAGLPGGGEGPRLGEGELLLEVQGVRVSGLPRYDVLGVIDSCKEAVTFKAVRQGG
Sequence of DLG4_1, P78352 (P78352 62-152): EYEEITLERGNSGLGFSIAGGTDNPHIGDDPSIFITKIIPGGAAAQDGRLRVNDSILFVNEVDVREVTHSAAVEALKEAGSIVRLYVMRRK

- pKd [1, 28]: 4.51
- pKd [2, 28]: below the threshold
- pKd [3, 28]: 3.93
- pKd [4, 28]: below the threshold
- pKd [5, 28]: below the threshold
- pKd [6, 28]: below the threshold
- pKd [7, 28]: 4.13
- pKd [8, 28]: below the threshold
- pKd [9, 28]: 3.61
- pKd [10, 28]: below the threshold
- pKd [11, 28]: 4.39
- pKd [12, 28]: below the threshold
- pKd [13, 28]: below the threshold
- pKd [14, 28]: 4.33
- pKd [15, 28]: 4.04
- pKd [16, 28]: below the threshold
- pKd [17, 28]: 4.52
- pKd [18, 28]: below the threshold
- pKd [19, 28]: 3.94
- pKd [20, 28]: below the threshold
- pKd [21, 28]: 4.2
- pKd [22, 28]: below the threshold
- pKd [23, 28]: below the threshold
- pKd [24, 28]: below the threshold
- pKd [25, 28]: 3.62
- pKd [26, 28]: 4.38
- pKd [27, 28]: 3.47
Binder: KDECVIATEV [DLL1, O00548]

- pKd [1, 29]: 4.55
- pKd [2, 29]: below the threshold
- pKd [3, 29]: 4.61
- pKd [4, 29]: below the threshold
- pKd [5, 29]: 3.64
- pKd [6, 29]: below the threshold
- pKd [7, 29]: 3.96
- pKd [8, 29]: below the threshold
- pKd [9, 29]: below the threshold
- pKd [10, 29]: below the threshold
- pKd [11, 29]: 4.97
- pKd [12, 29]: 4.3
- pKd [13, 29]: 4.07
- pKd [14, 29]: 5.25
- pKd [15, 29]: 3.65
- pKd [16, 29]: 4.61
- pKd [17, 29]: 4.8
- pKd [18, 29]: 4.7
- pKd [19, 29]: 5.43
- pKd [20, 29]: 4.12
- pKd [21, 29]: 5.02
- pKd [22, 29]: below the threshold
- pKd [23, 29]: below the threshold
- pKd [24, 29]: 4.49
- pKd [25, 29]: 4.71
- pKd [26, 29]: 4.89
- pKd [27, 29]: 4.26
Binder: IGHEDLETAV [DGKI, O75912]

- pKd [1, 30]: 3.56
- pKd [2, 30]: below the threshold
- pKd [3, 30]: 3.83
- pKd [4, 30]: below the threshold
- pKd [5, 30]: below the threshold
- pKd [6, 30]: below the threshold
- pKd [7, 30]: 3.63
- pKd [8, 30]: below the threshold
- pKd [9, 30]: 3.76
- pKd [10, 30]: below the threshold
- pKd [11, 30]: 4.42
- pKd [12, 30]: 4.31
- pKd [13, 30]: below the threshold
- pKd [14, 30]: 5
- pKd [15, 30]: below the threshold
- pKd [16, 30]: below the threshold
- pKd [17, 30]: 4.38
- pKd [18, 30]: 3.49
- pKd [19, 30]: 3.71
- pKd [20, 30]: below the threshold
- pKd [21, 30]: 4.24
- pKd [22, 30]: below the threshold
- pKd [23, 30]: below the threshold
- pKd [24, 30]: 3.51
- pKd [25, 30]: 3.89
- pKd [26, 30]: 4.04
- pKd [27, 30]: 3.86
Binder: KQVVPFSSSV [GDA, Q9Y2T3]
